This is an account of results in patent US20180291110A1 (Hoffmann-La Roche, published 2018).

By koff is commonly meant the first-order rate constant of dissociation.

The test addresses T1, human transferrin receptor (recombinant, for surface plasmon resonance) (human, UniProt P02786 89-760).
T1 construct: also called huTfR; human transferrin receptor-biotinylated
Description: SPR 25C.

T1 sequence (P02786 89-760 limits assumed): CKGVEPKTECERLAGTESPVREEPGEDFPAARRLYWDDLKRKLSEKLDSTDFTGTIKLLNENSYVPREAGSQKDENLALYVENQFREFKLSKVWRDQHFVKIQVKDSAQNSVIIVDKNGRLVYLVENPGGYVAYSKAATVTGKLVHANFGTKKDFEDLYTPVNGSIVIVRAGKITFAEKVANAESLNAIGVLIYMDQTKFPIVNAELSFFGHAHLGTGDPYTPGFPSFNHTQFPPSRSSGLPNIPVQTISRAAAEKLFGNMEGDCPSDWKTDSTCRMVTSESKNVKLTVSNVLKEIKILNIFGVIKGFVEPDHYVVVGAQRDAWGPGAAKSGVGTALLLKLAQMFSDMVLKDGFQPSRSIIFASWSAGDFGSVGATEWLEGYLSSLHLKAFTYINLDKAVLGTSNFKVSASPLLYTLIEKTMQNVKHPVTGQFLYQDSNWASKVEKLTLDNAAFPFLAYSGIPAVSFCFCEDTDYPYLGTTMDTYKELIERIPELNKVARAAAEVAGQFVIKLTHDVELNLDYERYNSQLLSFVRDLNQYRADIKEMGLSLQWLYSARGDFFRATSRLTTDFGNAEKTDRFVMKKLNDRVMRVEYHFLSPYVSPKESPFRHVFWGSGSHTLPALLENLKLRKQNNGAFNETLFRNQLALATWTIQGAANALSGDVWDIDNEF

B1: 2/99 VH18/VL10 (antibody, V domains shown)
VH: QVQLQESGPGLVKPSQTLSLTCTVSGFSLSSYAMSWIRQHPGKGLEWIGYIWSGGSTDYAPSLKSRVTISVDTSKNQFSLKLSSVTAADTAVYYCARRYGTSYPDYGDANGFDPWGQGTLVTVSS
VL: DIQMTQSPSSLSASVGDRVTITCRASQSISSYLSWYQQKPGKAPKLLIYRASTLASGVPSRFSGSRSGTDFTLTISSLQPEDFATYYCQQSYSSSNVDNTFGGGTKVEIK
As to B1, the off-rate constant (koff) amounted to 0.00746 s⁻¹.

B2: 2/99 VH22/VL10 (antibody, V domains shown)
VH: QSMQESGPGLVKPSQTLSLTCTVSGFSLSSYAMSWVRQHPGKGLEWIGYIWSGGSTDYASWAKSRVTISVDTSKNQVSLKLSSVTAADTAVYYCARRYGTSYPDYGDANGFDPWGQGTLVTVSS
VL: DIQMTQSPSSLSASVGDRVTITCRASQSISSYLSWYQQKPGKAPKLLIYRASTLASGVPSRFSGSRSGTDFTLTISSLQPEDFATYYCQQSYSSSNVDNTFGGGTKVEIK
B2: the off-rate constant (koff) came out at 0.00209 s⁻¹.

B3: 2/99 VH16/VL12 (antibody, V domains shown)
VH: QQLQESGPGLVKPSETLSLTCTVSGFSLSSYAMSWVRQPPGKGLEWIGYIWSGGSTDYNPSLKSRVTISVDTSKNQVSLKLSSVTAADTAVYYCARRYGTSYPDYGDANGFDPWGPGTLVTVSS
VL: DIQMTQSPSSLSASVGDRVTITCRASQSISSYLAWYQQKPGKAPKLLIYRASTLASGVPSRFSGSRSGTDFTLTISSLQPEDFATYYCQQHYSSSNVDNTFGGGTKVEIK
For the molecule B3, the dissociation rate constant (koff) is 0.00754 s⁻¹.

B4: 2/99 VH11/VL12 (antibody, V domains shown)
VH: QQLLESGGGLVQPGGSLRLSCAASGFSLSSYAMSWVRQAPGKGLEWVGYIWSGGSTDYADSVKGRFTISRDNSKNTLYLQMNSLRAEDTAVYYCARRYGTSYPDYGDANGFDPWGQGTLVTVSS
VL: DIQMTQSPSSLSASVGDRVTITCRASQSISSYLAWYQQKPGKAPKLLIYRASTLASGVPSRFSGSRSGTDFTLTISSLQPEDFATYYCQQHYSSSNVDNTFGGGTKVEIK
For B4, the koff was 0.00787 s⁻¹.

B5: 2/99 VH15/VL12 (antibody, V domains shown)
VH: QQLQESGPGLVKPSETLSLTCTVSGFSLSSYAMSWVRQPPGKGLEWIGYIWSGGSTDYNPSLKSRVTISVDTSKNQVSLKLSSVTAADTAVYYCARRYGTSYPDYGDANGFDPWGQGTLVTVSS
VL: DIQMTQSPSSLSASVGDRVTITCRASQSISSYLAWYQQKPGKAPKLLIYRASTLASGVPSRFSGSRSGTDFTLTISSLQPEDFATYYCQQHYSSSNVDNTFGGGTKVEIK
For B5, the off-rate (koff) was 0.00764 s⁻¹.

B6: 2/99 VH1/VL12 (antibody, V domains shown)
VH: VQLVETGGGLIQPGGSLRLSCAASGFSLSSYAMSWVRQAPGKGLEWVGYIWSGGSTDYADSVKGRFTISRDNSKNTLYLQMNSLRAEDTAVYYCARRYGTSYPDYGDANGFDPWGQGTLVTVSS
VL: DIQMTQSPSSLSASVGDRVTITCRASQSISSYLAWYQQKPGKAPKLLIYRASTLASGVPSRFSGSRSGTDFTLTISSLQPEDFATYYCQQHYSSSNVDNTFGGGTKVEIK
For B6, the koff worked out at 0.00705 s⁻¹.

B7: 2/99 VH18/VL12 (antibody, V domains shown)
VH: QVQLQESGPGLVKPSQTLSLTCTVSGFSLSSYAMSWIRQHPGKGLEWIGYIWSGGSTDYAPSLKSRVTISVDTSKNQFSLKLSSVTAADTAVYYCARRYGTSYPDYGDANGFDPWGQGTLVTVSS
VL: DIQMTQSPSSLSASVGDRVTITCRASQSISSYLAWYQQKPGKAPKLLIYRASTLASGVPSRFSGSRSGTDFTLTISSLQPEDFATYYCQQHYSSSNVDNTFGGGTKVEIK
B7: the off-rate constant (koff) was determined as 0.001 s⁻¹.

B8: 2/99 VH7/VL12 (antibody, V domains shown)
VH: QQLVETGGGLIQPGGSLRLSCAASGFSLSSYAMSWVRQAPGKGLEWIGYIWSGGSTDYASWAKGRFTISRDNSKNTLYLQMNSLRAEDTAVYYCARRYGTSYPDYGDANGFDPWGQGTLVTVSS
VL: DIQMTQSPSSLSASVGDRVTITCRASQSISSYLAWYQQKPGKAPKLLIYRASTLASGVPSRFSGSRSGTDFTLTISSLQPEDFATYYCQQHYSSSNVDNTFGGGTKVEIK
With B8, the koff was 0.00775 s⁻¹.

B9: 2/99 VH2/VL12 (antibody, V domains shown)
VH: EVQLVETGGGLIQPGGSLRLSCAASGFSLSSYAMSWVRQAPGKGLEWVGYIWSGGSTDYADSVKGRFTISRDNSKNTLYLQMNSLRAEDTAVYYCARRYGTSYPDYGDANGFDPWGQGTLVTVSS
VL: DIQMTQSPSSLSASVGDRVTITCRASQSISSYLAWYQQKPGKAPKLLIYRASTLASGVPSRFSGSRSGTDFTLTISSLQPEDFATYYCQQHYSSSNVDNTFGGGTKVEIK
As to B9, the koff worked out at 0.00814 s⁻¹.

B10: 2/99 VH5/VL12 (antibody, V domains shown)
VH: QSMEETGGGLIQPGGSLRLSCAASGFSLSSYAMSWVRQAPGKGLEWVGYIWSGGSTDYADSVKGRFTISRDNSKNTLYLQMNSLRAEDTAVYYCARRYGTSYPDYGDANGFDPWGPGTLVTVSS
VL: DIQMTQSPSSLSASVGDRVTITCRASQSISSYLAWYQQKPGKAPKLLIYRASTLASGVPSRFSGSRSGTDFTLTISSLQPEDFATYYCQQHYSSSNVDNTFGGGTKVEIK
For B10, the dissociation rate constant (koff) was found to be 0.001 s⁻¹.

B11: 2/99 VH21/VL10 (antibody, V domains shown)
VH: QSMQESGPGLVKPSQTLSLTCTVSGFSLSSYAMSWIRQHPGKGLEWIGYIWSGGSTDYASWAKSRVTISVDTSKNQVSLKLSSVTAADTAVYYCARRYGTSYPDYGDANGFDPWGQGTLVTVSS
VL: DIQMTQSPSSLSASVGDRVTITCRASQSISSYLSWYQQKPGKAPKLLIYRASTLASGVPSRFSGSRSGTDFTLTISSLQPEDFATYYCQQSYSSSNVDNTFGGGTKVEIK
For the molecule B11, the off-rate (koff) turned out to be 0.00211 s⁻¹.

B12: 2/99 VH13/VL12 (antibody, V domains shown)
VH: QVQLQESGPGLVKPSETLSLTCTVSGFSLSSYAMSWIRQPPGKGLEWIGYIWSGGSTDYNPSLKSRVTISVDTSKNQVSLKLSSVTAADTAVYYCARRYGTSYPDYGDANGFDPWGQGTLVTVSS
VL: DIQMTQSPSSLSASVGDRVTITCRASQSISSYLAWYQQKPGKAPKLLIYRASTLASGVPSRFSGSRSGTDFTLTISSLQPEDFATYYCQQHYSSSNVDNTFGGGTKVEIK
Take B12: the koff is 0.00785 s⁻¹.

B13: 2/99 VH6/VL12 (antibody, V domains shown)
VH: QQLVETGGGLIQPGGSLRLSCAASGFSLSSYAMSWVRQAPGKGLEWIGYIWSGGSTDYADSVKGRFTISRDNSKNTLYLQMNSLRAEDTAVYYCARRYGTSYPDYGDANGFDPWGQGTLVTVSS
VL: DIQMTQSPSSLSASVGDRVTITCRASQSISSYLAWYQQKPGKAPKLLIYRASTLASGVPSRFSGSRSGTDFTLTISSLQPEDFATYYCQQHYSSSNVDNTFGGGTKVEIK
For the molecule B13, the off-rate (koff) came out at 0.00778 s⁻¹.

B14: 2/99 VH19/VL12 (antibody, V domains shown)
VH: QSMQESGPGLVKPSQTLSLTCTVSGFSLSSYAMSWIRQHPGKGLEWIGYIWSGGSTDYAPSLKSRVTISVDTSKNQFSLKLSSVTAADTAVYYCARRYGTSYPDYGDANGFDPWGQGTLVTVSS
VL: DIQMTQSPSSLSASVGDRVTITCRASQSISSYLAWYQQKPGKAPKLLIYRASTLASGVPSRFSGSRSGTDFTLTISSLQPEDFATYYCQQHYSSSNVDNTFGGGTKVEIK
B14: the koff was 0.001 s⁻¹.

B15: 2/99 VH8/VL12 (antibody, V domains shown)
VH: QQLVETGGGLIQPGGSLRLSCAASGFSLSSYAMSWVRQAPGKGLEWIGYIWSGGSTDYASWAKGRFTISKTSTTLYLQMNSLRAEDTAVYYCARRYGTSYPDYGDANGFDPWGQGTLVTVSS
VL: DIQMTQSPSSLSASVGDRVTITCRASQSISSYLAWYQQKPGKAPKLLIYRASTLASGVPSRFSGSRSGTDFTLTISSLQPEDFATYYCQQHYSSSNVDNTFGGGTKVEIK
Regarding B15, the koff was found to be 0.00672 s⁻¹.

B16: 2/99 VH9/VL12 (antibody, V domains shown)
VH: QQLLESGGGLVQPGGSLRLSCAASGFTFSSYAMSWVRQAPGKGLEWVGYIWSGGSTDYADSVKGRFTISRDNSKNTLYLQMNSLRAEDTAVYYCAKRYGTSYPDYGDANGFDPWGQGTLVTVSS
VL: DIQMTQSPSSLSASVGDRVTITCRASQSISSYLAWYQQKPGKAPKLLIYRASTLASGVPSRFSGSRSGTDFTLTISSLQPEDFATYYCQQHYSSSNVDNTFGGGTKVEIK
Turning to B16, the koff was 0.001 s⁻¹.

B17: 2/99 VH12/VL12 (antibody, V domains shown)
VH: QVQLQESGPGLVKPSETLSLTCTVSGFSLSSYAMSWIRQPPGKGLEWIGYIWSGGSTDYNPSLKSRVTISVDTSKNQFSLKLSSVTAADTAVYYCARRYGTSYPDYGDANGFDPWGQGTLVTVSS
VL: DIQMTQSPSSLSASVGDRVTITCRASQSISSYLAWYQQKPGKAPKLLIYRASTLASGVPSRFSGSRSGTDFTLTISSLQPEDFATYYCQQHYSSSNVDNTFGGGTKVEIK
As for B17, the koff is 0.001 s⁻¹.

B18: 2/99 VH19/VL10 (antibody, V domains shown)
VH: QSMQESGPGLVKPSQTLSLTCTVSGFSLSSYAMSWIRQHPGKGLEWIGYIWSGGSTDYAPSLKSRVTISVDTSKNQFSLKLSSVTAADTAVYYCARRYGTSYPDYGDANGFDPWGQGTLVTVSS
VL: DIQMTQSPSSLSASVGDRVTITCRASQSISSYLSWYQQKPGKAPKLLIYRASTLASGVPSRFSGSRSGTDFTLTISSLQPEDFATYYCQQSYSSSNVDNTFGGGTKVEIK
With B18, the koff stood at 0.001 s⁻¹.

B19: 2/99 VH23-DANG/VL10 (antibody, V domains shown)
VH: QSMQESGPGLVKPSQTLSLTCTVSGFSLSSYAMSWIRQHPGKGLEWIGYIWSGGSTDYASWAKSRVTISKTSTTVSLKLSSVTAADTAVYYCARRYGTSYPDYGDANGFDPWGQGTLVTVSS
VL: DIQMTQSPSSLSASVGDRVTITCRASQSISSYLSWYQQKPGKAPKLLIYRASTLASGVPSRFSGSRSGTDFTLTISSLQPEDFATYYCQQSYSSSNVDNTFGGGTKVEIK
For the molecule B19, the koff stood at 0.0012 s⁻¹.

B20: 2/99 VH20/VL10 (antibody, V domains shown)
VH: QSMQESGPGLVKPSQTLSLTCTVSGFSLSSYAMSWIRQHPGKGLEWIGYIWSGGSTDYAPSLKSRVTISVDTSKNQVSLKLSSVTAADTAVYYCARRYGTSYPDYGDANGFDPWGQGTLVTVSS
VL: DIQMTQSPSSLSASVGDRVTITCRASQSISSYLSWYQQKPGKAPKLLIYRASTLASGVPSRFSGSRSGTDFTLTISSLQPEDFATYYCQQSYSSSNVDNTFGGGTKVEIK
Consider B20, for which the koff worked out at 0.00705 s⁻¹.

B21: 2/99 VH17/VL12 (antibody, V domains shown)
VH: QQLQESGPGLVKPSETLSLTCTVSGFSLSSYAMSWVRQPPGKGLEWIGYIWSGGSTDYNPSLKSRVTISKDTSKNQVSLKLSSVTAADTAVYYCARRYGTSYPDYGDANGFDPWGPGTLVTVSS
VL: DIQMTQSPSSLSASVGDRVTITCRASQSISSYLAWYQQKPGKAPKLLIYRASTLASGVPSRFSGSRSGTDFTLTISSLQPEDFATYYCQQHYSSSNVDNTFGGGTKVEIK
B21: the koff worked out at 0.00284 s⁻¹.
